Test [1] deals with T1, rHuman ErbB2/Fc Chimera, CF (R&D Systems Cat#1129-ER) (human, UniProt P04626 23-652).
T1 construct: Bought recombinant protein; also called human epidermal growth factor 2 receptor; Fc part of the bought chimera not given
Kind of test: ECL multispot (MSD) assay, antigen spotted on plate; blank spot of this row 511.

Test [2] has as its target T2, rHuman EGF R/Fc Chimera, CF (R&D Systems Cat#344-ER) (human, UniProt P00533 25-645).
T2 construct: Bought recombinant protein; also called epidermal growth factor receptor; Fc part of the bought chimera not given
The description is as above.

The target of test [3] is T3, rHuman HGF R/c-MET/Fc Chimera, CF (R&D Systems Cat#358-MT/CF) (human, UniProt P08581 25-932).
T3 construct: Bought recombinant protein; also called HGF R/Fc; hepatocyte growth factor receptor; Fc part of the bought chimera not given
Described as above.

For test [4], the target named is T4, rHuman Notch-1/Fc Chimera, CF (R&D Systems Cat#3647-TK) (human, UniProt P46531 19-526).
T4 construct: Bought recombinant protein; Fc part of the bought chimera not given
The description is as above.

In test [5] the target is T5, rHuman CD44/Fc Chimera, CF (R&D Systems Cat#3660-CD) (human, UniProt P16070 21-220).
T5 construct: Bought recombinant protein; Fc part of the bought chimera not given
The description is as above.

Test [6] deals with T6, rHuman IGF-1 sR, (IGF-1 sR), CF (R&D Systems Cat#391-GR) (human, UniProt P08069 31-932).
T6 construct: Bought recombinant soluble receptor; also called insulin-like growth factor-1 soluble receptor
Described as above.

For test [7], the target named is T7, rHuman P-Cadherin/Fc Chimera, CF (R&D Systems Cat#861-PC) (human, UniProt P22223 108-654).
T7 construct: Bought recombinant protein; Fc part of the bought chimera not given
Described as above.

Test [8] has as its target T8, rHuman Erythropoietin R/Fc Chimera, CF (R&D Systems Cat#963-ER) (human, UniProt P19235 25-250).
T8 construct: Bought recombinant protein; also called EPO R; EPO R/Fc; Fc part of the bought chimera not given
T8 sequence (looked up): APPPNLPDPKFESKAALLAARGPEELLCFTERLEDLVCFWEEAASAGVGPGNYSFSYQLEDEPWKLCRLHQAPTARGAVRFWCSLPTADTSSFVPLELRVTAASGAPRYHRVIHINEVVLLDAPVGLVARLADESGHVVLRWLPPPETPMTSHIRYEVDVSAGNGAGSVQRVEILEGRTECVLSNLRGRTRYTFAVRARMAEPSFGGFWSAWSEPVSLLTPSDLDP
Described as above.

Test [9] concerns the target T9, Recombinant Human DLL4 (R&D Systems Cat#1506-D4/CF) (human, UniProt Q9NR61 27-524).
T9 construct: Bought recombinant protein; also called delta-like protein 4; rHuman DLL4
The test is described as above.

Test [10] addresses T10, rHuman CD44/Fc Chimera, CF (human, UniProt P16070 21-220).
T10 construct: Bought from R&D Systems; Fc part of the bought chimera not given
Nature of the test: ECL multispot (MSD) assay, antigen spotted on the plate, Fab in solution; blank spot of the same well 298.

Test [11] deals with T11, rHuman IGF-1 sR, (IGF-1 sR), CF (human, UniProt P08069 31-932).
T11 construct: Bought from R&D Systems as a soluble receptor; also called insulin-like growth factor-1 soluble receptor
The test is described as above.

The target in test [12] is T12, rHuman P-Cadherin/Fc Chimera, CF (human, UniProt P22223 108-654).
T12 construct: Bought from R&D Systems; Fc part of the bought chimera not given
The test is described as above.

The target of test [13] is T13, rHuman Erythropoietin R/Fc Chimera, CF (human, UniProt P19235 25-250).
T13 construct: Bought from R&D Systems; also called EPO R; EPO R/Fc; Fc part of the bought chimera not given
T13 sequence (looked up): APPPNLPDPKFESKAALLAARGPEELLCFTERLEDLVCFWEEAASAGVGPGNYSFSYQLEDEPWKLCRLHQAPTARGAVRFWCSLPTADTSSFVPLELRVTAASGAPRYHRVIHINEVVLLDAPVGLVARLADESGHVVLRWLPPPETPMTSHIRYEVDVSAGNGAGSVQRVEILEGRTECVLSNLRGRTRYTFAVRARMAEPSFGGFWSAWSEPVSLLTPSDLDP
Described as above.

The target in the next test is T14, Recombinant Human DLL4 (human, UniProt Q9NR61 27-524).
T14 construct: Bought from R&D Systems; also called delta-like protein 4; rHuman DLL4
Described as above.

For test [14], the target named is T15, rHuman ErbB2/Fc Chimera, CF (human, UniProt P04626 23-652).
T15 construct: Bought from R&D Systems; also called human epidermal growth factor 2 receptor; Fc part of the bought chimera not given
The test is described as above.

The target in test [15] is T16, rHuman EGF R/Fc Chimera, CF (human, UniProt P00533 25-645).
T16 construct: Bought from R&D Systems; also called epidermal growth factor receptor; Fc part of the bought chimera not given
The description is as above.

Test [16] addresses T17, rHuman HGF R/c-MET/Fc Chimera, CF (human, UniProt P08581 25-932).
T17 construct: Bought from R&D Systems; also called HGF R/Fc; hepatocyte growth factor receptor; Fc part of the bought chimera not given
Described as above.

Test [17] has as its target T18, rHuman Notch-1/Fc Chimera, CF (human, UniProt P46531 19-526).
T18 construct: Bought from R&D Systems; Fc part of the bought chimera not given
The test is described as above.

The target of test [18] is T1, rHuman ErbB2/Fc Chimera, CF (R&D …). Kind of test: ECL multispot (MSD) assay, antigen spotted on plate; blank spot of this row 294.
The target of test [19] is T2, rHuman EGF R/Fc Chimera, CF (R&D …). The description is as above.
Test [20] has as its target T3, rHuman HGF R/c-MET/Fc Chimera, CF (R&D …). Described as above.
Test [21] has as its target T4, rHuman Notch-1/Fc Chimera, CF (R&D …). Described as above.
The target in test [22] is T5, rHuman CD44/Fc Chimera, CF (R&D Systems …). Described as above.
Test [23] concerns the target T6, rHuman IGF-1 sR, (IGF-1 sR), CF (R&D …). The description is as above.
Test [24] has as its target T7, rHuman P-Cadherin/Fc Chimera, CF (R&D …). Described as above.
Test [25] addresses T8, rHuman Erythropoietin R/Fc Chimera, CF …. The test is described as above.
The target of test [26] is T9, Recombinant Human DLL4 (R&D Systems …). The description is as above.

T3 sequence (P08581 25-932, change not shown): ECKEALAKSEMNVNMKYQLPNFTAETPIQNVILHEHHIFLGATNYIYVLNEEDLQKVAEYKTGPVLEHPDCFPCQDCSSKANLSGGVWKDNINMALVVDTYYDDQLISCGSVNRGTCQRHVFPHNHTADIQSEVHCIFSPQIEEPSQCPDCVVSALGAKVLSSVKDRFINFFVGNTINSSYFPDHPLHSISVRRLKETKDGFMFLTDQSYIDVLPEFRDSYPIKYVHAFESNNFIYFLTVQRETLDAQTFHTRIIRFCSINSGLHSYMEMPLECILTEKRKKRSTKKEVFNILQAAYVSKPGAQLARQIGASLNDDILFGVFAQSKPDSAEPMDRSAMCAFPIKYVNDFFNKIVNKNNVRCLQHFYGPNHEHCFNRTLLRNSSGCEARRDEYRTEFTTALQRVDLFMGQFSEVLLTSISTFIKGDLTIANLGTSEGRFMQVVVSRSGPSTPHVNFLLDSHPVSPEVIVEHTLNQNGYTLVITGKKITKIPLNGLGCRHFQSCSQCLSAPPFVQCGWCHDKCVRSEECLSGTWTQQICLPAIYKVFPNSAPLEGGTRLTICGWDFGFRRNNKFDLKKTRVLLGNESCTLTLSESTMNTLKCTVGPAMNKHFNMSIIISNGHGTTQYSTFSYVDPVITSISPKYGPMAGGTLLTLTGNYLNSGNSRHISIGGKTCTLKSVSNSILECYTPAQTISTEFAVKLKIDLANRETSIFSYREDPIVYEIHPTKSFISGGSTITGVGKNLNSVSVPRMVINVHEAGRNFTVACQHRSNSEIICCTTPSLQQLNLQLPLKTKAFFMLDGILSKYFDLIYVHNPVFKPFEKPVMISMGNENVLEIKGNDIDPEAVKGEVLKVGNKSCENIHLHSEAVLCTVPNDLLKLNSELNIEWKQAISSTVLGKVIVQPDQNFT
T17 sequence (P08581 25-932, change not shown): as above

B1: Fab VH1-46_IGHD6-6*01_IGHJ1*01 S102A/S103P/S104F/H111F (APFF) & L6_IGKJ1*01 S31K (Fab, V domains shown)
VH: QVQLVQSGAEVKKPGASVKVSCKASGYTFTSYYMHWVRQAPGQGLEWMGIINPSGGSTSYAQKFQGRVTMTRDTSTSTVYMELSSLRSEDTAVYYCAREEYAPFSAEYFQFWGQGTLVTVSS
VL: EIVLTQSPATLSLSPGERATLSCRASQSVSKYLAWYQQKPGQAPRLLIYDASNRATGIPARFSGSGSGTDFTLTISSLEPEDFAVYYCQQRSNWPPWTFGQGTKVEIKR
notes: Fab made in E. coli: VH cloned into Plasmid A (CH1, His6 and Flag tags), kappa VL into Plasmid C (kappa CL); also called APFF / S31K
As to B1, the ECL signal is 262 in test [1]; 355 in [2]; 221 in [3]; 334 in test [4]; 370 in test [5]; 505 in test [6]. In addition, the ECL signal stood at 471 in test [7], 522 in [8] and 179000 in test [9].

B2: Fab VH1-46_IGHD6-6*01_IGHJ1*01 S102A/S103P/S104F/H111F (APFF) & L6_IGKJ1*01 S31R (Fab, V domains shown)
VH: QVQLVQSGAEVKKPGASVKVSCKASGYTFTSYYMHWVRQAPGQGLEWMGIINPSGGSTSYAQKFQGRVTMTRDTSTSTVYMELSSLRSEDTAVYYCAREEYAPFSAEYFQFWGQGTLVTVSS
VL: EIVLTQSPATLSLSPGERATLSCRASQSVSRYLAWYQQKPGQAPRLLIYDASNRATGIPARFSGSGSGTDFTLTISSLEPEDFAVYYCQQRSNWPPWTFGQGTKVEIKR
notes: Tested as an E. coli Fab; The heavy chain carries CH1 with His6 and Flag tags from plasmid A, the light chain a kappa CL from plasmid C; also called APFF / S31R; H:APFF & L6_IGKJ1*01 S31R
Turning to B2, the ECL signal is 423 in test [10]; 374 in test [11]; 270 in test [12]; 465 in test [13]; 166000 with Recombinant Human DLL4; 313 in [14]. Moreover, the ECL signal is 331 in test [15], 261 in [16] and 358 in test [17].

B3: Fab VH1-46_IGHD6-6*01_IGHJ1*01 S102A/S103P/S104F/H111F (APFF) & L6_IGKJ1*01 S31N (Fab, V domains shown)
VH: QVQLVQSGAEVKKPGASVKVSCKASGYTFTSYYMHWVRQAPGQGLEWMGIINPSGGSTSYAQKFQGRVTMTRDTSTSTVYMELSSLRSEDTAVYYCAREEYAPFSAEYFQFWGQGTLVTVSS
VL: EIVLTQSPATLSLSPGERATLSCRASQSVSNYLAWYQQKPGQAPRLLIYDASNRATGIPARFSGSGSGTDFTLTISSLEPEDFAVYYCQQRSNWPPWTFGQGTKVEIKR
notes: Fab made in E. coli: VH cloned into Plasmid A (CH1, His6 and Flag tags), kappa VL into Plasmid C (kappa CL); also called APFF / S31N
Take B3: the ECL signal in test [18] turned out to be 197; in test [19] it was 246; in test [20] it was 300; in test [21] it was 267; in test [22] it was 384; in [23], 379. Moreover, the results for the ECL signal in test [24], in test [25] and in test [26] were 342, 363 and 178000, respectively.

Values taken from patent publication US20120316071A1 (published 2012).
